Assay results published in the DeepSol protein solubility set.

Test: soluble on expression in E. coli; label from the status in PepcDB or PDB records

Sequence	soluble on expression in E. coli
MMNKDLSYCIVLSSEQLSYLAGSKYGIDRMKILNRLIEATVLEQTEYSKKGFAMTLQVGQAALSEVELSCKLGYDKKTISRVIDKMNQLGIVASVQSNRTSIHTQKCVSAWMLDGKRIDNPFYVRMKNRKDGNEKTANRPYNNSILPMKQQHILESNAEANCPTQTQTDNTAVSDETYSPDLSTSPTSSETPVTAYDDKNRNGYDELKAETNNHELLHTPTTTSGYEIAGNGSDNDAAQVNSTSAYPTTTLASPQPLAEEEPTNDQGNDWQL	not soluble
MAHHHHHHSLSLQVTTKTGKESQKKTQTTAKSTITVDIKGAVKHEGVYTLPIDSRINDVIEKAGGFSEKADRKSVNLAQKLQDEAVIYVAAIGENISVIRDSQEGKTSQADKANTKETSVKGKVNLNTATLADLQTISGIGEKKAQDILDYREANGGFKSVDDLKNISGIGDKTFEKLKDLVSVDEG	not soluble
MSLSQQVPAASFTLLDGQKLSTQDLKGKVYLVNFWATSCATCVKEMPNMIQTYNKFKGQGLEFVAVAMSYDPPMYVMNYSQTRQLPFKVAMDADGAAARAFGDVQLTPTTFLVDRNGRILRRYVGEPEWASFETLLRDTLAKQAEGLITITTDPNSSSVDKLAAALEHHHHHH	soluble
MGSDKIHHHHHHMSNSSIKSKTALLRNGETQKGNGYPEANDYSARILETMQTGVVFFNTEQIISGINNLACEDLQIPRDPSGHKITDIISIIHQEKDIFPELIARLKSSETDMEKLPIDTLIRSLETKVQFFASGCIMQLETGRYLLAFRNTMDEVTHEHLLSMILARTKIFPWFFDLKRNKMLIDAHWFSYLGIPAGDCEITIEKFFSRVHPNERDMLADALQKQLSEKEIPDSFSYRLQRGDGSWEWFSEQSMYLSKTNDGSPYRIVGVCHSIQEHKNTEDKLRAARNKAQESDRLKSAFLANMSHEIRTPLNAIVGFSNLIAGGIVDLDTEEARDYSALISKNCNYLLTLVSDVLDLSCIESDTMTFKFTVYPLTRLLTEIYQKYENRIPQEVQFNLLLPTDNVEIETDAVRLRQVIEHLLDNAAKFTVKGHIDIGYALSDHGEKIYVFVADTGCGIPSDQYKKVFERFYKINSFVQGAGLGLSVCKTIVEGLGGTINVYSQLKEGSRFSVILPLNRLHK	not soluble
MLRIEDLQLAAALAQAPSLSAAARALNVTPPALSMRLRKLEAGLGLALAVRSARRLSLTPEGERLAREAAALLAQLQALPESLRRDDSRLTGTLRVAAPFGYGRRHIAPVLARLAQRHPELRVQLDLRETPWPDHQDADAVVHIGAVRDSSWVTRRLADNERWLCASPQYLQDHGMPREPRDLLHHRCICIRENDEDASLWRFRRADAGAAGRKAAETVRIAPAYVSNDGNVARAWAEQGLGLVVRSQWDAEGAVARGALVRVMPQWQLDSAPVMLLVPGRKGRSARVKALLECFDEQAGHA	not soluble
MAHHHHHHERASLITTGPYGHQSGAVYVGNYKVVNRHLATHVDWQNCVWEDYNRDLLVSTTTAHGCDTIARCQCTTGVYFCASKSKHYPVSFEGPGLVEVQESEYYPKRYQSHVLLATGFSEPGDAGGILRCEHGVIGLVTMGGEGVVGFADVRDLLWLEDDAMEQ	soluble
GSGGARGLYLQTVTYNFLKEQGDNRIVRTQALPATRGTVSDRNGAVLALSAPTESLFAVPKDMKEMPSAAQLERLSELVDVPVDVLRNKLEQKGKSFIWIKRQLDPKVAEEVKALGLENFVFEKELKRHYPMGNLFAHVIGFTDIDGKGQEGLELSLEDSLYGEDGAEVVLRDRQGNIVDSLDSPRNKAPQNGKDIILSLDQRIQTLAYEELNKAVEYHQAKAGTVVVLDARTGEILALANTPAYDPNRPGRADSEQRRNRAVTDMIEPGSAIKPFVIAKALDAGKTDLNERLNTQPYKIGPSPVRDTHVYPSLDVRGIMQKSSNVGTSKLSARFGAEEMYDFYHELGIGVRMHSGFPGETAGLLRNWRRWRPIEQATMSFGYGLQLSLLQLARAYTALTHDGVLLPLSFEKQAVAPQGKRIFKESTAREVRNLMVSVTEPGGTGTAGAVDGFDVGAKTGTARKFVNGRYADNKHVATFIGFAPAKNPRVIVAVTIDEPTAHGYYGGVVAGPPFKKIMGGSLNILGISPTKPLTAAAVKTPS	soluble
VNKLSPRFEINEGTYSSFAVAQEGAAPGAGEVRTHRIAVGLYSLIDGSVTRTHRVELDVDSELTEVPELVGVPAADLVIVNDDDLTYCLMQLDPASLAFVVENIDKIADPMARTLCWSAAWEMTRDGSMRARDFVRLIARGAQAETEIAVLERVLMQASRALSSYVDPQWAEQEGSALLADAMLQAARELEPGSDAQLAFVQALAKVKLTDEAAAEFALIAKGSTSLPGVVVDSDLRWWALTALIARGDVPAAEVEQRIAQLLALDKSSAGELAALRAYAAQPSQDVKAKIFAQITDPANSLSNLYLRHKLEGLQFAGSAPYLEQFSESVFELVEPLWKALSSEVAAVTVTGIYPSWDVSAESVERAHAFLDAHPDLPGAARRIISEGAAGQERAVRLRAIDAA	not soluble
MGSDKIHHHHHHADNPVVQTLYTTDPAPMVYNGTCYLYTGHDEDGSTWYTMKDWRCYSSTDMVNWTDNGSPLAYNTFSWAKGDAWAGQCIPRNGKFYYYVPVTQKSGGMAIGVAVSNSPTGPFVDALGHPLAYTGTGDIDPTVFIDNDGQAYLYWGNPNLYYVKLNQDMISYSGKIVQVPLTTAGFGVRKGNSSRPTLYEEGPWFYKRNGMYYMVYAAGGIPEYISYSTSKSPTGPWYYKGVIMPSQGRSFTNHPGVIDFKGNSYFFYHNGALPGGSGFTRSVCIEQFKYNADGTFPTINMTTTGVSGIGNLNPYTQNEAETICWESNVKTEKCSEGGMDVCNIQNNSWIKVKGVNFDSGAASFNARVASATNGGNIELHLDSPSGTLIGTCHVNSTGGWQSWVTNSCNVSGAKGIHDLYLKFTGGNGYLFNVNWWKFNGTKTVSTR	not soluble
LAQPAMAMVGSRNATPQGLANADAFAEAASNAGFCIISGLAQGIDTAAHQGGLRGASSSMAIVGTGLDLVYPSRNHELAHKLANEGGLISEFPLGTPAISRNFPRRNRIISGMCHACLVVEATLYSGSLITARLALEQGREVMAIPGSIHSPLSKGCHALIKQGAKLVENIQDILDE	not soluble
MGSDKIHHHHHHMTPYRDNTPHLARDNHLLFTELARDYCLSMPISFKEALDRAQDATGLSMRKLADKAGVSYEQLKKVRQGKSQTTNAEDALKIATAVGVSFEQFMSGEFDASPTISIAGKVGAGAQVPVFDAYEKGDGPQVECPPGIGPHGVVAVEVEGDSMEPVYSAGDLLFYSRNGHDSVPDDVIGYKCVCEDADGMGWVKQVKAGDEPGLFHLISLNPTGANMWNVRLKWAARVRLHWPAEFARKK	not soluble
MGSDKIHHHHHHMQVTEQMKLDLARDGAFVARGLFSPEGLKRMREAFDYGIEHPSPQHGYIFKGTPDEHFNDYGNIANRDVHIATIKALVLDEFVASLWDSQHVWFKGEEIFIKKGGKAGRSPWHQDNSYTPVSGPQMLNIWTCFERIPRKNALEVVRGSHLGIQYNGNSYTDPGKPTKPLWLNTDWPDLPDIEAERAKDPNSWDVLSWDLELGDALVFHSGALHGGAPVSADCPDRHTLVYRFFGDKLFYRPLPTGGCNYPYDISALNDPSLMPGEPFRAAWCTQLR	not soluble
MLKQLLEQATSNNGKARLYAFENTVELTNLIPPTVSYESGGNTLIVGPTAIIESAAAQLSQMNSLTLLSTDGEKGTNPELYYANSVQVSGFLGTFEVLIENHGSTNNLAKVAINSDCFDIVLDLCLNSCMSEEVPVPGYYPVGRGYPKLAEALEEIPTLMGTFDKPKFFRLDTDLCAHSSRGVKGCERCVDACPAGALSSEGSDKTGHRIEINPYLCQGVGTCATACPTEAIHYALPNPEDTQKFIERTLANYEQAGGLDPIVLICSSRHESYNVMALKALPDNVIPIVVEELPSVGIDTWFAALVNGATQVLFAASRFMPQTIIRVLNSEVGIAQELLDQLGIAKETIDILYLESLREGAPTLCTESFDLALGDLQGNKRQRLFTALDALSASRIPVENIVELPANAPYGTVSCESKDC	not soluble
MAHHHHHHMSSPFFGEQRKTRHNRSCSSCDSLPRYAASPPCHPQYAKVDRAAPSVSSPTFSSVPPSPKFPALCMHAMSHTNSTVPSSKLPFSNSVTGNGAALIGTLASFDSEAPRGRPASVAEDGAASGSSSGLSRAAVLMSGRGDASPPFSPQPSGSVLAVFCPLTSKAWQSGTLRDGIAFDVDTTSKVSTISPQTGLQSPLLFSSGWSQQSVSAAAQGTPPSFMGTPGQSLISAGAEGDDAEDTPHSCGAMYSPNHSVSLLPAPKVFVSVYPVQSPEPFATKFTGSPVFEVSLTTPPSIRAPQTGAARGAGATPAPSSRLPSESLEQYSLLRSPILHSLTPLSISPSAPLSPGFGCITGTEPMQSRLSRHRLATSAGSEQLPVRTSNDMRSRNAAVASPPPAAVPSVNSNHESLSDRLVSPARRSYRCPLPSSNEASLSSFFAVDDAGLHANLSMTQASEEDAAHRAASATLPRVCSSKDTEAEEGVAAALAPDTTDDPFEAFWDISPAAQWGGSVTEMLPRITTSSAPFETGSASRSVTAFASGTHEKDSHSSEEFNQNNRLSCVSMERHRNTILHRPSAAQQRNTILHRPSVVQQRNSVNRSVDTQRTTSKTMTLQQRQRRFSLQQEDSIEIKRRSYA	not soluble
MKFDPTSPSLNIMLANPRGFCAGVDRAISIVERALELFSPPIYVRHEVVHNRYVVQNLKDRGAVFVEELDQVPDNNIVIFSAHGVSQAVRAEAKARGLRVFDATCPLVTKVHLQVTRASRKGIECILIGHAGHPEVEGTMGQYDNPNGGVYLIESPADVETLEVRDPNNLCFVTQTTLSVDDTLDIISALLKRFPSIEGPRKDDICYATQNRQDAVRNLSADVDLLIVVGSKNSSNSNRLRELALKTGTQSYLVDTADDIDSSWFENITKVAVTAGASAPEVLVQQVVQAIAKLAPSVVTEVEGRKEDTVFAVPAELR	soluble
MKIDLNCDLGEGFGVWQMGDDAAMMQIATSVNIACGFHAGDPDIMHATVKLAKQNGVAIGAHPGFRDLHGFGRRPVPGITAAEIENLVAYQIGALQAVAALAGHKVTHVKAHGALSNVACEDDMTARAIASAIKAVDPSLVFVVLANSKLMLAGEAAGLPLAHEVFADRAYEDDGNLVSRKKPGAVLHDPNEIAERVLRMAQDGAVVSVTGKVIKMRTDTVCIHGDTKGAVEIARGVRRKLEASGITVAPFAGTLEHHHHHH	soluble
INQYNQKKSQEYTDMQLLLQKESDFAQYYEMILSQSENQSILIHDIKKHLQSIKLLNEKNDSDKINAYIQQLLESSDLKETSKICDNEMLNAILCRYQRQCNEKHIVFHTDIRSDTVQNIYQHDLTSLFCNLLDNALESADNIPDSFIELTVEKKENSPFIIIILINSCRSTPVYDQDGLPVSHKANKGRHGFGIKSIKKVVKQYHGNLQMYYDNDSGTFHTIITLKQ	not soluble
MAGDPMKSSQYPAQDLKRRVLAWAVKLKVNPRAVRVQDMHRKWGSCSSTGTITLASDLLDQEQRFQDYVIVHELLHLRFATHGRMFKALMSAYVPGWRAMEGMGQHRICRKYRSTRSTVLEHHHHHH	not soluble
MQKQNIVILGSTGSIGKSTLSVIENNPQKYHAFALVGGKNVEAMFEQCIKFRPHFAALDDVNAAKILREKLIAHHIPTEVLAGRRAICELAAHPDADQIMASIVGAAGLLPTLSAVKAGKRVLLANKESLVTCGQLFIDAVKNYGSKLLPVDSEHNAIFQSLPPEAQEKIGFCPLSELGVSKIILTGSGGPFRYTPLEQFTNITPEQAVAHPNWSMGKKISVDSATMMNKGLEYIEARWLFNASAEEMEVIIHPQSIIHSMVRYVDGSVITQMGNPDMRTPIAETMAYPHRTFAGVEPLDFFKIKELTFIEPDFNRYPNLKLAIDAFAAGQYATTAMNAANEIAVQAFLDRQIGFMDIAKINSKTIERISPYTIQNIDDVLEIDAQAREIAKTLLRE	not soluble
